From patent US20220389082A1 (CSL BEHRING LENGNAU, published 2022)

Experiments:
[1] = biological target: T1, D′D3 albumin fusion protein (D′D3-FP), dimer (human, Covalent homodimer: the two chains are joined by disulfide bridge(s) within the D3 part (paragraph 124 names Cys-1099, Cys-1142, Cys-1222, Cys-1225, Cys-1227 in SEQ ID NO:4 numbering). N-glycosylated, …); test: SPR (Biacore T200), D′D3-FP captured on anti-albumin antibody, rVIII-SingleChain as analyte, single cycle kinetics, 25° C.; D′D3-FP dimer preparation
T1 construct: It was expressed in CHO K1 cells with the VWF propeptide, which is cleaved by co-transfected furin; The dimer fraction was isolated by size exclusion chromatography; The description says the dimer is a disulfide-linked homodimer; In the SPR assay it was captured on an anti-albumin antibody; also called dimeric D′D3-FP; rD′D3-FP
Protocol: (§1) An anti-albumin antibody (MA1-20124, Thermo Scientific) was covalently coupled via its N-terminus to an activated CM 3 chip by NHS (N-Hydroxysuccinimide) and EDC […], both contained in the amine coupling kit (BR1000-50) from GE Healthcare. For immobilization 3 μg/mL of the antibody were diluted in sodium acetate buffer (10 mM, pH 5.0) and the antibody solution was flown over the chip for 7 min. at a flow rate of 10 μL/min. After the immobilization procedure non-coupled dextran filaments were saturated by flowing ethanolamine solution (1 M, pH 8.3) over the chip for 5 min (at a flow rate of 10 μL/min). The aim of saturating the flow cell was to minimize unspecific binding of the analytes to the chip. A reference flow cell was set up by saturating an empty flow cell with ethanolamine by using the same procedure as above.
(§2) Dimeric and monomeric D′D3-FP proteins, respectively, were immobilized to the covalently coupled anti-albumin antibody by a flow of the D′D3-FP proteins (5 μg/mL) over the chip for 3 min (flow rate of 10 μL/min).
(§3) To create binding curves for FVIII, each D′D3-FP protein preparation was diluted in running buffer (HBS-P+: 0.1 M HEPES, 1.5 M NaCl and 0.5% v/v Surfactant P20, pH 7.4; product code BR100671, GE Healthcare) to concentrations of 0.25 nM, 0.5 nM, 1 nM, 3 nM and 4 nM. […]

[2] = biological target: T1, D′D3 albumin fusion protein (D′D3-FP), …; test: SPR (Biacore T200), D′D3-FP captured on anti-albumin antibody, rVIII-SingleChain as analyte, single cycle kinetics, 25° C.
Protocol: as §1, §2, §3

T1 sequence (chain, as listed by the source limits assumed, chain 1 of 2): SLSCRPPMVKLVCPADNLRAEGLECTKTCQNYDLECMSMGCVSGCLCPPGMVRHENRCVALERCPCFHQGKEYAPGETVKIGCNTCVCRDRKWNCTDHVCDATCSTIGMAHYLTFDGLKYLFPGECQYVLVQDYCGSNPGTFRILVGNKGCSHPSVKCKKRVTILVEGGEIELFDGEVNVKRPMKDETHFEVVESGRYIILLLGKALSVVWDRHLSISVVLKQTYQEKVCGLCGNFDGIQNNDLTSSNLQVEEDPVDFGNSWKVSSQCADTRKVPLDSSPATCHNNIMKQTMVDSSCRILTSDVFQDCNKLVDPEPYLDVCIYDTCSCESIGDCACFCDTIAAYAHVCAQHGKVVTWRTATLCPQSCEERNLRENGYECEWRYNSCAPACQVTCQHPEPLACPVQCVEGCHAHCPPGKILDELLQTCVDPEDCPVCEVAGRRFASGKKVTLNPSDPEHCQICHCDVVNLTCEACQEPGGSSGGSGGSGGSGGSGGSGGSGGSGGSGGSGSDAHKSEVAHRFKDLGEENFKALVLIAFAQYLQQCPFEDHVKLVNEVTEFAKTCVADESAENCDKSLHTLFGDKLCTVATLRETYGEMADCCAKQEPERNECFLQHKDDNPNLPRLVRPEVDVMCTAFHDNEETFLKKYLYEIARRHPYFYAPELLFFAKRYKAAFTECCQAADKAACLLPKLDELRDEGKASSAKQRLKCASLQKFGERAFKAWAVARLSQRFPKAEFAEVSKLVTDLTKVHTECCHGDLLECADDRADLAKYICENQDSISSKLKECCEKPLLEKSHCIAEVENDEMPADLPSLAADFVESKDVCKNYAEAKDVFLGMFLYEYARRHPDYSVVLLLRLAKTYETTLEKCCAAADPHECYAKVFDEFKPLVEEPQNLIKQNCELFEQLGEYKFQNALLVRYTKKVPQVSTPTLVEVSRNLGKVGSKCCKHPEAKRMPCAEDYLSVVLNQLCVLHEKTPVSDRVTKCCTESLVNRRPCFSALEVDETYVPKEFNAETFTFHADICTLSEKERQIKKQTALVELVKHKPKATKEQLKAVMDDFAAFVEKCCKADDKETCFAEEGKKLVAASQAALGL
T1 sequence (chain, as listed by the source limits assumed, chain 2 of 2): as the sequence (chain, as listed by the source limits assumed, chain 1 of 2) above

Kd [1]: 0.034 nM
koff [2]: 0.0015 s⁻¹
kon [2]: 4.5e+07 M⁻¹ s⁻¹
B1: rVIII-SingleChain (single chain Factor VIII molecule, construct dBN(64-53) of WO 2004/067566) (other)
chain: ATRRYYLGAVELSWDYMQSDLGELPVDARFPPRVPKSFPFNTSVVYKKTLFVEFTDHLFNIAKPRPPWMGLLGPTIQAEVYDTVVITLKNMASHPVSLHAVGVSYWKASEGAEYDDQTSQREKEDDKVFPGGSHTYVWQVLKENGPMASDPLCLTYSYLSHVDLVKDLNSGLIGALLVCREGSLAKEKTQTLHKFILLFAVFDEGKSWHSETKNSLMQDRDAASARAWPKMHTVNGYVNRSLPGLIGCHRKSVYWHVIGMGTTPEVHSIFLEGHTFLVRNHRQASLEISPITFLTAQTLLMDLGQFLLFCHISSHQHDGMEAYVKVDSCPEEPQLRMKNNEEAEDYDDDLTDSEMDVVRFDDDNSPSFIQIRSVAKKHPKTWVHYIAAEEEDWDYAPLVLAPDDRSYKSQYLNNGPQRIGRKYKKVRFMAYTDETFKTREAIQHESGILGPLLYGEVGDTLLIIFKNQASRPYNIYPHGITDVRPLYSRRLPKGVKHLKDFPILPGEIFKYKWTVTVEDGPTKSDPRCLTRYYSSFVNMERDLASGLIGPLLICYKESVDQRGNQIMSDKRNVILFSVFDENRSWYLTENIQRFLPNPAGVQLEDPEFQASNIMHSINGYVFDSLQLSVCLHEVAYWYILSIGAQTDFLSVFFSGYTFKHKMVYEDTLTLFPFSGETVFMSMENPGLWILGCHNSDFRNRGMTALLKVSSCDKNTGDYYEDSYEDISAYLLSKNNAIEPRSFSQNSRHPSTRQKQFNATTIPENTTLQSDQEEIDYDDTISVEMKKEDFDIYDEDENQSPRSFQKKTRHYFIAAVERLWDYGMSSSPHVLRNRAQSGSVPQFKKVVFQEFTDGSFTQPLYRGELNEHLGLLGPYIRAEVEDNIMVTFRNQASRPYSFYSSLISYEEDQRQGAEPRKNFVKPNETKTYFWKVQHHMAPTKDEFDCKAWAYFSDVDLEKDVHSGLIGPLLVCHTNTLNPAHGRQVTVQEFALFFTIFDETKSWYFTENMERNCRAPCNIQMEDPTFKENYRFHAINGYIMDTLPGLVMAQDQRIRWYLLSMGSNENIHSIHFSGHVFTVRKKEEYKMALYNLYPGVFETVEMLPSKAGIWRVECLIGEHLHAGMSTLFLVYSNKCQTPLGMASGHIRDFQITASGQYGQWAPKLARLHYSGSINAWSTKEPFSWIKVDLLAPMIIHGIKTQGARQKFSSLYISQFIIMYSLDGKKWQTYRGNSTGTLMVFFGNVDSSGIKHNIFNPPIIARYIRLHPTHYSIRSTLRMELMGCDLNSCSMPLGMESKAISDAQITASSYFTNMFATWSPSKARLHLQGRSNAWRPQVNNPKEWLQVDFQKTMKVTGVTTQGVKSLLTSMYVKEFLISSSQDGHQWTLFFQNGKVKVFQGNQDSFTPVVNSLDPPLLTRYLRIHPQSWVHQIALRMEVLGCEAQDLY
notes: also called FVIII
